Laboratory results published in publication PMC12713027.

Target: NAA15-mCherry (rice (Oryza sativa, japonica cultivar Zhonghua 11))
Assay: FRET or BRET; FLIM-FRET in rice protoplasts, donor NAA10-eGFP and acceptor NAA15-mCherry co-expressed with pRTV-RESIS, 16 h after transfection

- mean fluorescence lifetime of the donor (co-expressed with RESIS): 2.45 ns
Substance: NAA10-eGFP (natural protein)
